Test results as given in patent US5162203A, “Methods of measuring isozymes and isozyme classes of alcohol dehydrogenase” (President and Fellows of Harvard College, priority 1989, dated 1992).

How the values were obtained:
Type in all cases: biochemical, human
[1] = substrate: COc1ccc2cc(C=O)ccc2c1; experiment: Kinetics of enzymatic reduction of methoxynaphthaldehydes by αβ1 ADH; conditions: other: pH 7.0, 50 μM NADH, spectrophotometric, 25.0 °C
Protocol: (§1) Standard assays for ethanol oxidation activity (Dalziel, 1957, Acta Chem Scand 11:1706-23) were carried out on a Cary 219 spectrophotometer interfaced with an Apple IIe microcomputer, using software provided by Varian Associates. The reaction mixture contained 2.5 mM NAD^+ in 0.1M glycine-NaOH buffer. pH 10.0, and 33 mM or 0.2M ethanol for Class I and Class II ADH, respectively.
(§2) Aldehyde reduction was monitored by following the decrease of absorption at 340 nm in 40 mM Mes buffer, pH 7.1. in the presence of saturating NADH, 50 μM for Class I and 100 μM for Class II. […] Initial reaction rates were measured and kinetic parameters determined by conventional procedures as described by Segel, 1975, Enzyme Kinetics, pp. 591-597, Wiley, N.Y.
(§3) All reaction mixtures (3 ml total volume) were prepared directly in 1 cm pathlength, 4 ml fluorometric cuvettes by adding 150 μl of the 300 μM substrate solution (e.g substrate IA or IIA) 100 μl of the 1 mM NADH solution (prepared as in part 5 above) and 2.69 ml of assay buffer (0.1M phosphate, pH 7.6). After thermal equilibration (25° C.) for 5 minutes, 60 μl of isozyme sample (either serum or purified ADH isozymes) was added to the cuvette.
(§4) The linear increase of fluorescence was then recorded for 1-10 minutes, until 0.03-1 μM of substrate was consumed. Larger substrate consumption was not found to be desirable (described in subpart (c) below). After this period the instrument sensitivity setting was reduced 10-30 fold, the signal compensated once again by zero suppression (see part 6 above), and 60 μl of 200-400 μM product (e.g., product IB or IIB) was added to provide an internal standard. The added product fluorescence intensity was then measured Fluorescence measurements were optimized for samples with low activity (<1 nM/minute). […] Rates measured in the presence of the 0.2 mM ADH inhibitors. […]
(§5) The rates of aldehyde reduction, determined as initial velocities (V) and expressed in units of nM/minute, were calculated according to: [formula] where the quantity in parentheses is the slope of the linear fluorescence increase calculated from the quantities Ft and FO, the fluorescence at time t and at the beginning of the reaction, respectively. Cst is the concentration of the product used as a standard added to the cuvette after the initial rate had been measured and Fst is the fluorescence intensity of the added product
(§6) Additionally the reaction rates for these isozymes were compared to those measured by the standard assay for ethanol oxidation (see part 7 above) at pH 10.0 the optimum for oxidation of ethanol by ADH. The rate of IA reduction for all Class I isozymes except the β1 β1 form is 1.5- to 4-fold faster than that of ethanol oxidation as measured by the conventional ethanol oxidation assay. […]

[2] = substrate: COc1ccc(C=O)c2ccccc12; experiment: as above; conditions: other: pH 7.0, 50 μM NADH, spectrophotometric, 25.0 °C
Protocol: as §1, §2, §3, §4, §5, §6

[3] = substrate: COc1ccc2cc(C=O)ccc2c1; experiment: Kinetics of enzymatic reduction of methoxynaphthaldehydes by αγ1 ADH; conditions: other: pH 7.0, 50 μM NADH, fluorometric, 25.0 °C
[4] = substrate: COc1ccc(C=O)c2ccccc12; experiment: as above; conditions: other: pH 7.0, 50 μM NADH, fluorometric, 25.0 °C
[5] = substrate: COc1ccc2cc(C=O)ccc2c1; experiment: Kinetics of enzymatic reduction of methoxynaphthaldehydes by β1γ1 ADH; conditions: other: pH 7.0, 50 μM NADH, fluorometric, 25.0 °C
[6] = substrate: COc1ccc(C=O)c2ccccc12; experiment: as above; conditions: other: pH 7.0, 50 μM NADH, fluorometric, 25.0 °C
[7] = substrate: COc1ccc2cc(C=O)ccc2c1; experiment: Kinetics of enzymatic reduction of methoxynaphthaldehydes by γ1γ1 ADH; conditions: other: pH 7.0, 50 μM NADH, fluorometric, 25.0 °C
[8] = substrate: COc1ccc(C=O)c2ccccc12; experiment: as above; conditions: other: pH 7.0, 50 μM NADH, fluorometric, 25.0 °C
[9] = substrate: COc1ccc2cc(C=O)ccc2c1; experiment: Kinetics of enzymatic reduction of methoxynaphthaldehydes by Class II ADH; conditions: other: pH 7.0, 50 μM NADH; spectrophotometric; pH 7.0; 25.0 °C
[10] = substrate: COc1ccc(C=O)c2ccccc12; experiment: as above; conditions: 25.0 °C
[11] = substrate: COc1ccc2cc(C=O)ccc2c1; experiment: Kinetics of enzymatic reduction of methoxynaphthaldehydes by Class III ADH; conditions: other: pH 7.0, 50 μM NADH, 25.0 °C
[12] = other: pH 7.0, 50 μM NADH, spectrophotometric, pH 7.0

B1: αβ1 ADH (Class I) (Homo sapiens) (protein)
chain 1: STAGKVIKCKAAVLWELKKPFSIEEVEVAPPKAHEVRIKMVAVGICGTDDHVVSGTMVTPLPVILGHEAAGIVESVGEGVTTVKPGDKVIPLAIPQCGKCRICKNPESNYCLKNDVSNPQGTLQDGTSRFTCRRKPIHHFLGISTFSQYTVVDENAVAKIDAASPLEKVCLIGCGFSTGYGSAVNVAKVTPGSTCAVFGLGGVGLSAIMGCKAAGAARIIAVDINKDKFAKAKELGATECINPQDYKKPIQEVLKEMTDGGVDFSFEVIGRLDTMMASLLCCHEACGTSVIVGVPPDSQNLSMNPMLLLTGRTWKGAILGGFKSKECVPKLVADFMAKKFSLDALITHVLPFEKINEGFDLLHSGKSIRTILMF
chain 2: STAGKVIKCKAAVLWEVKKPFSIEDVEVAPPKAYEVRIKMVAVGICHTDDHVVSGNLVTPLPVILGHEAAGIVESVGEGVTTVKPGDKVIPLFTPQCGKCRVCKNPESNYCLKNDLGNPRGTLQDGTRRFTCRGKPIHHFLGTSTFSQYTVVDENAVAKIDAASPLEKVCLIGCGFSTGYGSAVNVAKVTPGSTCAVFGLGGVGLSAVMGCKAAGAARIIAVDINKDKFAKAKELGATECINPQDYKKPIQEVLKEMTDGGVDFSFEVIGRLDTMMASLLCCHEACGTSVIVGVPPASQNLSINPMLLLTGRTWKGAVYGGFKSKEGIPKLVADFMAKKFSLDALITHVLPFEKINEGFDLLHSGKSIRTVLTF
notes: beta1 allele (ADH1B*1, Arg47 and Arg369 in mature count)
B1 showed a Km [1] of 11.5 µM, a kcat [1] of 2.67 s⁻¹ and a Km [2] of 8.5 µM. The kcat [2] was 7.5 s⁻¹.

B2: αγ1 ADH (Class I) (Homo sapiens) (protein)
chain 1: STAGKVIKCKAAVLWELKKPFSIEEVEVAPPKAHEVRIKMVAVGICGTDDHVVSGTMVTPLPVILGHEAAGIVESVGEGVTTVKPGDKVIPLAIPQCGKCRICKNPESNYCLKNDVSNPQGTLQDGTSRFTCRRKPIHHFLGISTFSQYTVVDENAVAKIDAASPLEKVCLIGCGFSTGYGSAVNVAKVTPGSTCAVFGLGGVGLSAIMGCKAAGAARIIAVDINKDKFAKAKELGATECINPQDYKKPIQEVLKEMTDGGVDFSFEVIGRLDTMMASLLCCHEACGTSVIVGVPPDSQNLSMNPMLLLTGRTWKGAILGGFKSKECVPKLVADFMAKKFSLDALITHVLPFEKINEGFDLLHSGKSIRTILMF
chain 2: STAGKVIKCKAAVLWELKKPFSIEEVEVAPPKAHEVRIKMVAAGICRSDEHVVSGNLVTPLPVILGHEAAGIVESVGEGVTTVKPGDKVIPLFTPQCGKCRICKNPESNYCLKNDLGNPRGTLQDGTRRFTCSGKPIHHFVGVSTFSQYTVVDENAVAKIDAASPLEKVCLIGCGFSTGYGSAVKVAKVTPGSTCAVFGLGGVGLSVVMGCKAAGAARIIAVDINKDKFAKAKELGATECINPQDYKKPIQEVLKEMTDGGVDFSFEVIGRLDTMMASLLCCHEACGTSVIVGVPPDSQNLSINPMLLLTGRTWKGAIFGGFKSKESVPKLVADFMAKKFSLDALITNILPFEKINEGFDLLRSGKSIRTVLTF
notes: gamma1 allele (ADH1C*1, Arg271 and Ile349 in mature count)
With B2 the Km [3] was 0.58 µM, the kcat [3] was 2.5 s⁻¹ and the Km [4] was 2.8 µM. For the same protein, the kcat [4] was 8.33 s⁻¹.

B3: β1 γ1 ADH (Class I) (Homo sapiens) (protein)
chain 1: MSTAGKVIKCKAAVLWEVKKPFSIEDVEVAPPKAYEVRIKMVAVGICHTDDHVVSGNLVTPLPVILGHEAAGIVESVGEGVTTVKPGDKVIPLFTPQCGKCRVCKNPESNYCLKNDLGNPRGTLQDGTRRFTCRGKPIHHFLGTSTFSQYTVVDENAVAKIDAASPLEKVCLIGCGFSTGYGSAVNVAKVTPGSTCAVFGLGGVGLSAVMGCKAAGAARIIAVDINKDKFAKAKELGATECINPQDYKKPIQEVLKEMTDGGVDFSFEVIGRLDTMMASLLCCHEACGTSVIVGVPPASQNLSINPMLLLTGRTWKGAVYGGFKSKEGIPKLVADFMAKKFSLDALITHVLPFEKINEGFDLLHSGKSIRTVLTF
chain 2: MSTAGKVIKCKAAVLWELKKPFSIEEVEVAPPKAHEVRIKMVAAGICRSDEHVVSGNLVTPLPVILGHEAAGIVESVGEGVTTVKPGDKVIPLFTPQCGKCRICKNPESNYCLKNDLGNPRGTLQDGTRRFTCSGKPIHHFVGVSTFSQYTVVDENAVAKIDAASPLEKVCLIGCGFSTGYGSAVKVAKVTPGSTCAVFGLGGVGLSVVMGCKAAGAARIIAVDINKDKFAKAKELGATECINPQDYKKPIQEVLKEMTDGGVDFSFEVIGRLDTMMASLLCCHEACGTSVIVGVPPDSQNLSINPMLLLTGRTWKGAIFGGFKSKESVPKLVADFMAKKFSLDALITNILPFEKINEGFDLLRSGKSIRTVLTF
notes: beta1 (ADH1B*1) and gamma1 (ADH1C*1) alleles
B3 showed a Km [5] of 0.40 µM, a kcat [5] of 2.83 s⁻¹ and a Km [6] of 0.60 µM. The kcat [6] was 4.42 s⁻¹.

B4: γ1 γ1 ADH (Class I) (Homo sapiens) (protein)
chain: STAGKVIKCKAAVLWELKKPFSIEEVEVAPPKAHEVRIKMVAAGICRSDEHVVSGNLVTPLPVILGHEAAGIVESVGEGVTTVKPGDKVIPLFTPQCGKCRICKNPESNYCLKNDLGNPRGTLQDGTRRFTCSGKPIHHFVGVSTFSQYTVVDENAVAKIDAASPLEKVCLIGCGFSTGYGSAVKVAKVTPGSTCAVFGLGGVGLSVVMGCKAAGAARIIAVDINKDKFAKAKELGATECINPQDYKKPIQEVLKEMTDGGVDFSFEVIGRLDTMMASLLCCHEACGTSVIVGVPPDSQNLSINPMLLLTGRTWKGAIFGGFKSKESVPKLVADFMAKKFSLDALITNILPFEKINEGFDLLRSGKSIRTVLTF
notes: as for B2
For B4, the Km [7] was 0.35 µM, the kcat [7] was 1.83 s⁻¹ and the Km [8] was 2.30 µM. For the same protein, the kcat [8] was 10.2 s⁻¹.

B5: Class II (π) ADH (Homo sapiens) (protein)
chain: MGTKGKVIKCKAAIAWEAGKPLCIEEVEVAPPKAHEVRIQIIATSLCHTDATVIDSKFEGLAFPVIVGHEAAGIVESIGPGVTNVKPGDKVIPLYAPLCRKCKFCLSPLTNLCGKISNLKSPASDQQLMEDKTSRFTCKGKPVYHFFGTSTFSQYTVVSDINLAKIDDDANLERVCLLGCGFSTGYGAAINNAKVTPGSTCAVFGLGGVGLSAVMGCKAAGASRIIGIDINSEKFVKAKALGATDCLNPRDLHKPIQEVIIELTKGGVDFALDCAGGSETMKAALDCTTAGWGSCTFIGVAAGSKGLTIFPEELIIGRTINGTFFGGWKSVDSIPKLVTDYKNKKFNLDALVTHTLPFDKISEAFDLMNQGKSVRTILIF
For B5, the Km [9] was 2.6 µM, the kcat [9] was 25 s⁻¹ and the kcat ([10]; other: Class II) was 0.667 s⁻¹. It also gave a Km [10, 12] of 20.0 µM and a kcat [10, 12] of 0.833 s⁻¹.

B6: Class III (.chi.) ADH (Homo sapiens) (protein)
chain: MANEVIKCKAAVAWEAGKPLSIEEIEVAPPKAHEVRIKIIATAVCHTDAYTLSGADPEGCFPVILGHEGAGIVESVGEGVTKLKAGDTVIPLYIPQCGECKFCLNPKTNLCQKIRVTQGKGLMPDGTSRFTCKGKTILHYMGTSTFSEYTVVADISVAKIDPLAPLDKVCLLGCGISTGYGAAVNTAKLEPGSVCAVFGLGGVGLAVIMGCKVAGASRIIGVDINKDKFARAKEFGATECINPQDFSKPIQEVLIEMTDGGVDYSFECIGNVKVMRAALEACHKGWGVSVVVGVAASGEEIATRPFQLVTGRTWKGTAFGGWKSVESVPKLVSEYMSKKIKVDEFVTHNLSFDEINKAFELMHSGKSIRTVVKI
Work on B6 yielded a kcat/Km [11] of 830 M⁻¹ s⁻¹.
